# Laboratory results published in PMC2879449 (Biochemistry, 2010).
# B1: WlbB, an N-acetyltransferase from Bordetella petrii (enzyme, UniProt A9IH93 1-190, looked up)
# chain: MATIHPTAIVDEGARIGAHSRIWHWVHICGGAEIGEGCSLGQNVFVGNRVRIGNRVKIQNNVSVYDNVFLEDDVFCGPSMVFTNVYNPRAAIERKSEYRDTIVRQGATLGANCTVVCGATIGRYAFVGAGAVVNKDVPDFALVVGVPARQIGWMSRHGEQLDLPLRGNAEATCPHTGERYILTDGVCRLA
# Biological target: the molecule itself
# Assay: crystal structure
protein,measurement,value
B1,stoichiometry N,3
